{"source": "patent US20230103618A1", "about": "(FRED HUTCHINSON CANCER CENTER, published 2023)", "binders": {"B1": {"name": "Murine monoclonal antibody (clone FH1D12) to TrkB.T1 (antibody, V domains shown)", "VH": "VQLQQSGPELARPWASVKISCQAFYTFSRGIHFDIRNTMYWIQWVKQRPGQGLEWIGAIYPGNGDPTYSQNFKDKATLTADKSSNTAYMQLSSLTSEDSAVYYCARYDYGGGFTYWGQGTLVTVSA", "VL": "QTVVTQESALTTSPGETVTLTCRSSTGAVTTSNYANWVQEKPDHLFTGLIGGINNRAPGVPARFSGSLIGDKAVLTITGAQTEDEAIYFCALWYSNHWVFGGGTKLTVL", "notes": "also called SPEH1_D12; antibody clone D12"}}, "biological_target": "T1, TrkB.T1 peptide FVLFHKIPLDG (not fully specified)", "T1 construct": "also called target peptide", "T1 peptide": "FVLFHKIPLDG", "assay": "bead-based flow cytometry, peptide on beads", "text": "Murine monoclonal antibody (clone FH1D12) was generated at the Fred Hutchinson Antibody Technology Core Facility. Briefly, male and female 20-week-old C57BL6 mice that were characterized as genetic null for TrkB.T1 (Dorsey, S. G. et al.) In vivo restoration of physiological levels of truncated TrkB.T1 receptor rescues neuronal cell death in a trisomic mouse model. Neuron 51, 21-28 (2006)) were immunized with TrkB.T1 peptide Ac—C(dPEG4)[…]-OH (SEQ ID NO:1) maleimide coupled to KLH carrier protein. Following a 12+ week boosting protocol splenocytes were isolated from high titer mice and electrofused to a subclone of the P3x63-Ag8 myeloma cell line (BTX, Harvard Apparatus). Hybridomas secreting peptide specific antibody were identified and isolated using a ClonePix2 (Molecular Devices, CPII) colony picker. Antibodies from the picked clones were validated for peptide binding by flow cytometry using a cytometric bead array carrying the target peptide. Clone FH1D12 was subcloned (CPII) followed by validation for peptide binding by bead-based flow cytometry. Affinity purified IgG2b lambda from the hybridoma was further characterized by Western blot analysis and IHC tissue staining. Antibody development was performed in Holland Lab and with the Antibody Technology Resource (Fred Hutchinson Cancer Research Center).", "note": "No end group written: not given here.", "data": [{"binder": "B1", "values": [{"measurement": "binding result", "value": "binds"}]}]}
